# Measured values as given in paper PMC12212125, “Constitutively active Arabidopsis cryptochrome two alleles identified using yeast selection and deep mutational scanning” (The Journal of Biological Chemistry, 2025).
# B1: Arabidopsis thaliana cryptochrome 2 (CRY2, UniProt Q96524), residues 1-535 fused after the Gal4 DNA-binding domain (Gal4BD-CRY2(535)); mutagenized window 321-412, Q96524 (parent)
# chain: MKMDKKTIVWFRRDLRIEDNPALAAAAHEGSVFPVFIWCPEEEGQFYPGRASRWWMKQSLAHLSQSLKALGSDLTLIKTHNTISAILDCIRVTGATKVVFNHLYDPVSLVRDHTVKEKLVERGISVQSYNGDLLYEPWEIYCEKGKPFTSFNSYWKKCLDMSIESVMLPPPWRLMPITAAAEAIWACSIEELGLENEAEKPSNALLTRAWSPGWSNADKLLNEFIEKQLIDYAKNSKKVVGNSTSLLSPYLHFGEISVRHVFQCARMKQIIWARDKNSEGEESADLFLRGIGLREYSRYICFNFPFTHEQSLLSHLRFFPWDADVDKFKAWRQGRTGYPLVDAGMRELWATGWMHNRIRVIVSSFAVKFLLLPWKWGMKYFWDTLLDADLECDILGWQYISGSIPDGHELDRLDNPALQGAKYDPEGEYIRQWLPELARLPTEWIHHPWDAPLTVLKASGVELGTNYAKPIVDIDTARELLAKAISRTREAQIMIGAAPDEIVADSFEALGANTIKEPGLCPSVSSNDQQVPSAV
# Variants of: B1
# Assay: yeast two-hybrid growth selection (MaV203; Gal4BD-CRY2(1-535) library x Gal4AD-CIB1; URA3 reporter on SC -Trp/-Leu/-Ura) in the dark, deep sequencing before and after selection, Enrich2 scoring; three independent screens (one at 48 h, two …)
# Details: with CIB1 (CRYPTOCHROME-INTERACTING BASIC-HELIX-LOOP-HELIX 1), dark (no blue light), screens 1, 3 and 4, Svar > 0 = enriched under dark selection for CRY2-CIB1 two-hybrid growth (URA3 reporter), < 0 = depleted, relative to wild type (whose scores are 0). 'The Enrich2 software calculates, parent: 0, not an affinity, scale: Enrich2 score, numbering: uniprot, sequence starts at 1
row,Variant,enrichment
1,I400N,-0.48
2,I400S,-0.343
3,I400F,1.95
4,I400Y,1.86
5,I400M,0.868
6,I400T,-0.933
7,I400L,-0.846
8,I400V,-0.353
9,S403C,0.314
10,S403G,-0.408
11,S403I,2.54
12,F381Y,0.399
13,F381V,-0.0604
14,F381C,0.0158
15,F381L,1.1
16,F381T,1.8
17,F381S,-1.2
18,F381I,-0.4
19,L395F,2.13
20,L395P,-0.953
21,L395Q,2.71
22,L395R,-0.209
23,L395H,-0.769
24,G377V,-0.508

row,Variant,enrichment
1,G377R,-1.08
2,G377E,-0.85
3,Q398K,2.11
4,Q398W,1.99
5,Q398L,1.96
6,Q398P,-0.641
7,Q398E,1.41
8,Q398R,2.52
9,Q398H,1.96
10,L385I,2.28
11,L385P,-1.22
12,L385F,2.61
13,L385R,-0.336
14,L385H,2.39
15,L385V,2.7
16,T384S,0.274
17,T384I,-0.949
18,T384K,-0.721
19,T384P,-1.14
20,T384A,0.177
21,Y380F,1.2
22,Y380H,-0.297
23,Y380C,-0.0376
24,Y380D,-0.763

row,Variant,enrichment
1,Y380S,-0.827
2,Y380N,-1.37
3,W397S,-1.08
4,W397R,-1.01
5,W397C,-0.144
6,W397L,-0.429
7,W397G,-0.823
8,S401T,2.02
9,S401F,2.4
10,S401L,2.46
11,S401A,-0.239
12,S401Y,0.744
13,S401P,-0.107
14,D383A,-0.952
15,D383V,-0.206
16,D383N,-0.384
17,D383Y,-0.379
18,D383G,-0.813
19,D383E,-0.349
20,W376R,-1.3
21,W376L,0.0656
22,W376C,-0.498
23,W376S,-1.68
24,W376G,-0.7

row,Variant,enrichment
1,L386V,0.483
2,L386W,-0.68
3,L386M,0.0161
4,L386F,-0.324
5,L386S,-0.716
6,D389V,-0.759
7,D389Y,-0.572
8,D389G,-1.23
9,D389A,-0.573
10,D389E,-0.54
11,D389N,-0.535
12,G396V,0.898
13,G396R,2.19
14,G396S,-1.1
15,G396D,0.65
16,G396A,-1.05
17,Y399H,1.23
18,Y399N,2.41
19,Y399F,1.58
20,Y399C,1.43
21,Y399D,1.99
22,Y399S,2.82
23,Y399I,2.5
24,W382C,-0.025

row,Variant,enrichment
1,W382G,0.784
2,W382L,-0.17
3,W382R,-1.18
4,A388V,-0.153
5,A388G,-1.33
6,A388P,-0.944
7,A388S,0.429
8,A388T,-0.454
9,A388D,-0.472
10,K379Q,-0.304
11,K379E,-0.743
12,K379R,0.0968
13,K379L,0.965
14,K379N,-0.188
15,K379T,0.481
16,K379M,-1.02
17,K379A,1.5
18,K375V,1.44
19,K375T,-0.845
20,D387H,-0.974
21,D387A,-0.921
22,D387E,-1.15
23,D387Y,-0.867
24,D387V,-0.792

row,Variant,enrichment
1,D387N,-0.788
2,D387G,-1.18
3,E391G,-1.1
4,E391K,-0.425
5,E391V,-0.645
6,E391A,-0.592
7,E391Q,-0.786
8,E391D,-0.531
9,M378A,0.99
10,M378V,0.308
11,M378R,2.81
12,M378I,-0.703
13,M378K,2.66
14,M378T,2.32
15,M378L,-0.703
16,I394T,0.588
17,I394S,0.694
18,I394Y,1.45
19,I394N,2.39
20,I394L,2.29
21,I394A,1.15
22,I394V,0.326
23,I394F,2.63
24,I394M,1.08

row,Variant,enrichment
1,G402R,1.69
2,G402W,-0.485
3,G402K,2.35
4,G402V,-0.0472
5,G402E,0.772
6,C392W,-0.824
7,C392G,-0.321
8,C392S,-0.465
9,C392F,-0.128
10,C392R,-1.14
11,C392Y,-1.08
12,L390W,2.28
13,L390S,-1.09
14,L390F,1.66
15,L390M,-0.808
16,L390V,0.548
17,D393A,1.64
18,D393S,2.65
19,D393V,0.508
20,D393Y,-0.612
21,D393E,1.18
22,D393N,1.16
23,D393G,2.3
